Three molecules from patent US20240398973A1, “ENGINEERED ANTIBODY COMPOUNDS AND CONJUGATES THEREOF” (Eli Lilly and Company, priority 2017, published 2024) can be followed below.

Where two headings read alike, the source gives them in different places.

Assay [1] concerns the target formyl peptide receptor 1 (FPR1) on primary human polymorphonuclear neutrophils (human) (UniProt P21462). The experiment in a line: cell-based or functional assay.
Assay [2] has the same target. Description: cell-based or functional assay. The source holds these as a separate data set.
The test system of assay [3] is A549 human lung carcinoma cells. The experiment in a line: PMN-mediated killing of A549 tumor cells (xCelligence). Format: cell-based. As to conditions: 2 hours, mean ± SD, n=4. The protocol:
Antibody-targeted killing of tumor cells by PMNs is measured using the xCelligence Real Time Cell Analysis system (ACEA Biosciences). This system monitors cell viability in real time by recording electrical impedance between sensors on the growth surface of culture plates. It reports a normalized cell index (NCI) that is normalized to control cells in parallel wells and allows one to control for relative culture viability. NCIs are measured continuously at 15 minute intervals for 24 hours following incubation of tumor cultures with targeted antibodies and addition of human primary PMNs at a 10:1 PMN to tumor cell ratio. Prior to seeding with tumor cells, xCelligence 96-well E-Plates are calibrated for background signal. Each well receives 50 μl of culture medium (RPMI+10% FBS+antibiotics) and the E-plate is equilibrated to 37° C. in a humidified incubator containing the xCelligence plate reader.
After equilibration, E-Plate well variations in background are measured. Cultured tumor cell lines are dissociated, counted and diluted to a final density of 1×10^5 cells/ml in culture medium and 100 μl of diluted tumor cells were plated into E-Plate wells. The E-Plate is returned to the xCelligence reader and cell indices are measured in 15 minute intervals overnight to establish baseline.
The next day, PMNs are isolated from fresh human blood samples and brought to a final density of 2×10^6 cells/ml in culture medium. Following overnight recording, the E-Plate is removed from the xCelligence reader and 22 μl of 10× antibody solution or buffer is added to designated wells. After 15 minutes, 50 μl of diluted PMNs (1×10^5 total cells) or buffer was added to designated wells. Immediately after PMN addition, the E-Plate is returned to the xCelligence reader and cell indices were measured for up to 72 hours. After completion of the experiment, cell indices are normalized (NCI) to the time point immediately preceding the addition of antibodies.
Percent NCI is defined as ((NCI of sample)/(NCI of Tumor Cells Alone)×100). For non-adherent tumor cells (Daudi cells), the xCelligence Immunotherapy Kit-B Cell Killing Assay (ACEA #8100004) is used to tether the tumor cells to E-Plate wells according to manufacturer protocols. Following tethering and background acquisition, the protocols are performed as indicated above.
Adherent MET(+) A549 human lung carcinoma cells are plated for approximately 24 hours, then incubated with Emibetuzumab-G4-fMLFK-HC-124C-375C or emibetuzumab-G4-UC-HC-124C-375C and exposed to primary human PMNs at 10:1 effector to target cell ratio.
Percent NCI values represent relative viability of A549 cells following 2 hours of exposure to the stated conditions. Values are given as mean percentage normalized to “+PMN” control±SD; n=4 for all conditions. Statistical significance was determined by one-way ANOVA followed by post-hoc Dunnett's multiple comparisons test vs “+PMN”. NCI, normalized cell index; PMN, primary human polymorphonuclear neutrophils; ns, not significant.

Turning to “Emibetuzumab-G4(PAA)-fMLFK-HC-124C-378C (antibody)”, in assay [1], the PMN ROS production at 1 nM (percent relative to 1000 nM fMLF) stood at 27.4%, the PMN ROS production at 2 nM (percent relative to 1000 nM fMLF) came out at 27.4%, the PMN ROS production at 3.9 nM (percent relative to 1000 nM fMLF) is 26.5% and the PMN ROS production at 7.8 nM (percent relative to 1000 nM fMLF) is 27.6%. Besides, in assay [1], the PMN ROS production at 15.6 nM (percent relative to 1000 nM fMLF) is 28.3%, the PMN ROS production at 31.3 nM (percent relative to 1000 nM fMLF) was found to be 27.9%, the PMN ROS production at 62.5 nM (percent relative to 1000 nM fMLF) worked out at 27.7% and the PMN ROS production at 125 nM (percent relative to 1000 nM fMLF) is 24.7%. Further, in assay [1], the PMN ROS production at 250 nM (percent relative to 1000 nM fMLF) worked out at 29%, the PMN ROS production at 500 nM (percent relative to 1000 nM fMLF) turned out to be 53.6% and the PMN ROS production at 1000 nM (percent relative to 1000 nM fMLF) is 62.2%. Besides, in assay [2], the PMN ROS production at 1 nM (percent relative to 1000 nM fMLF) was found to be 0.6%, the PMN ROS production at 3 nM (percent relative to 1000 nM fMLF) amounted to 0.8%, the PMN ROS production at 12 nM (percent relative to 1000 nM fMLF) was found to be 0.9% and the PMN ROS production at 30 nM (percent relative to 1000 nM fMLF) was 1.8%. In assay [2], this molecule returned a PMN ROS production at 100 nM (percent relative to 1000 nM fMLF) of 3.4%, a PMN ROS production at 300 nM (percent relative to 1000 nM fMLF) of 9.1% and a PMN ROS production at 1000 nM (percent relative to 1000 nM fMLF) of 25.3%.
For “Emibetuzumab-G4(PAA)-fMLFK-HC-378C (antibody)”, in assay [1], the PMN ROS production at 1 nM (percent relative to 1000 nM fMLF) was 25.8%, the PMN ROS production at 2 nM (percent relative to 1000 nM fMLF) is 27.7%, the PMN ROS production at 3.9 nM (percent relative to 1000 nM fMLF) stood at 28.2% and the PMN ROS production at 7.8 nM (percent relative to 1000 nM fMLF) turned out to be 27.3%. For the same molecule, in assay [1], the PMN ROS production at 15.6 nM (percent relative to 1000 nM fMLF) came to 29.6%, the PMN ROS production at 31.3 nM (percent relative to 1000 nM fMLF) came out at 24.5%, the PMN ROS production at 62.5 nM (percent relative to 1000 nM fMLF) was 23.4% and the PMN ROS production at 125 nM (percent relative to 1000 nM fMLF) is 23.5%. In assay [1], this molecule came in with a PMN ROS production at 250 nM (percent relative to 1000 nM fMLF) of 23.9%, a PMN ROS production at 500 nM (percent relative to 1000 nM fMLF) of 38.3% and a PMN ROS production at 1000 nM (percent relative to 1000 nM fMLF) of 48.9%. In assay [2], this molecule registered a PMN ROS production at 1 nM (percent relative to 1000 nM fMLF) of 0.9%, a PMN ROS production at 3 nM (percent relative to 1000 nM fMLF) of 1.8%, a PMN ROS production at 12 nM (percent relative to 1000 nM fMLF) of 0.9% and a PMN ROS production at 30 nM (percent relative to 1000 nM fMLF) of 1.2%. In assay [2], the PMN ROS production at 100 nM (percent relative to 1000 nM fMLF) is 1%, the PMN ROS production at 300 nM (percent relative to 1000 nM fMLF) turned out to be 2.4% and the PMN ROS production at 1000 nM (percent relative to 1000 nM fMLF) is 2.8%.

B1: Emibetuzumab-G4(PAA)-UC-HC-124C-375C: unconjugated emibetuzumab IgG4(PAA) with HC 124C and 375C; HC SEQ ID NO:4, LC SEQ ID NO:5 (antibody)
heavy: QVQLVQSGAEVKKPGASVKVSCKASGYTFTDYYMHWVRQAPGQGLEWMGRVNPNRRGTTYNQKFEGRVTMTTDTSTSTAYMELRSLRSDDTAVYYCARANWLDYWGQGTTVTVSSASTKGPCVFPLAPCSRSTSESTAALGCLVKDYFPEPVTVSWNSGALTSGVHTFPAVLQSSGLYSLSSVVTVPSSSLGTKTYTCNVDHKPSNTKVDKRVESKYGPPCPPCPAPEAAGGPSVFLFPPKPKDTLMISRTPEVTCVVVDVSQEDPEVQFNWYVDGVEVHNAKTKPREEQFNSTYRVVSVLTVLHQDWLNGKEYKCKVSNKGLPSSIEKTISKAKGQPREPQVYTLPPSQEEMTKNQVSLTCLVKGFYPCDIAVEWESNGQPENNYKTTPPVLDSDGSFFLYSRLTVDKSRWQEGNVFSCSVMHEALHNHYTQKSLSLSLG
light: DIQMTQSPSSLSASVGDRVTITCSVSSSVSSIYLHWYQQKPGKAPKLLIYSTSNLASGVPSRFSGSGSGTDFTLTISSLQPEDFATYYCQVYSGYPLTFGGGTKVEIKRTVAAPSVFIFPPSDEQLKSGTASVVCLLNNFYPREAKVQWKVDNALQSGNSQESVTEQDSKDSTYSLSSTLTLSKADYEKHKVYACEVTHQGLSSPVTKSFNRGEC
modifications: SITE 122 THIOETH - position 122 is cysteine residue modified by thioether bond formation to maleimide-polyethylene glycol (PEG) linker; SITE 370 THIOETH - position 370 is cysteine residue modified by thioether bond formation to maleimide-polyethylene glycol (PEG) linker
With B1, the “Percent NCI” value stood at 102.3 ± 1.7% in assay [3] (A549, 3 nM + PMN); 101.3 ± 0.7% in assay [3] (A549, 3 nM without PMN); 102.5 ± 1.9% in assay [3] (A549, 10 nM + PMN); 102.5±1.9% in assay [3] (A549, 10 nM + PMN, listed as emibetuzumab-G4-UC-HC-124C-375C); 100.8 ± 1% in assay [3] (A549, 10 nM without PMN); 102.7 ± 1.5% in assay [3] (A549, 30 nM + PMN). Also, the “Percent NCI” value in assay [3] (A549, 30 nM without PMN) is 100.1 ± 0.9%; in assay [3] (A549, 100 nM + PMN), 102.9 ± 1.5%; in assay [3] (A549, 100 nM without PMN), 100.8 ± 1.4%; in assay [3] (A549, 300 nM + PMN), 102.3 ± 1.8%; in assay [3] (A549, 300 nM without PMN), 102.8 ± 4.9%.
